The supplement of paper PMC9112550, “Optimization of the antimicrobial peptide Bac7 by deep mutational scanning” (BMC Biology, 2022)

System: Escherichia coli TOP10
Experiment: shrunken log2 fold change of peptide-encoding DNA abundance (4.5 h post-induction vs induction); higher = less antimicrobial activity (less host growth inhibition)
Details: time post-induction: 4.5 h; library: site-saturation at positions 5, 18, 19, 20
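Further: peptides expressed intracellularly from a pBAD plasmid library in pooled LB shake-flask culture, induced with 0.3% L-arabinose, DNA abundance read by NGS, three biological replicates, DESeq2 with apeglm shrinkage.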

Sequence	shrunken log2 fold change
RRIRTRPPRLPRPRPRPKRPPRP	-0.165
RRIRTRPPRLPRPRPRPKRTPRP	-0.132
RRIRTRPPRLPRPRPRPKTDPRP	-0.158
RRIRTRPPRLPRPRPRPKVMPRP	-0.243
RRIRTRPPRLPRPRPRPLEPPRP	0.021
RRIRTRPPRLPRPRPRPLFKPRP	1.5
RRIRTRPPRLPRPRPRPLHEPRP	-0.191
RRIRTRPPRLPRPRPRPLHMPRP	-0.369
RRIRTRPPRLPRPRPRPLHVPRP	-0.175
RRIRTRPPRLPRPRPRPLIEPRP	-0.325
RRIRTRPPRLPRPRPRPLKHPRP	-0.315
RRIRTRPPRLPRPRPRPLKWPRP	-0.205
RRIRTRPPRLPRPRPRPLNYPRP	-0.415
RRIRTRPPRLPRPRPRPLQDPRP	0.00698
RRIRTRPPRLPRPRPRPLQLPRP	-0.167
RRIRTRPPRLPRPRPRPLQRPRP	-0.063
RRIRTRPPRLPRPRPRPLSCPRP	-0.000228
RRIRTRPPRLPRPRPRPLTCPRP	-0.809
RRIRTRPPRLPRPRPRPLTHPRP	-0.0616
RRIRTRPPRLPRPRPRPLTVPRP	-0.267
RRIRTRPPRLPRPRPRPLVAPRP	0.106
RRIRTRPPRLPRPRPRPLVDPRP	-0.143
RRIRTRPPRLPRPRPRPLYLPRP	-0.558
RRIRTRPPRLPRPRPRPMAPPRP	0.294
RRIRTRPPRLPRPRPRPMAVPRP	-0.296

Sequence	shrunken log2 fold change
RRIRTRPPRLPRPRPRPMAYPRP	0.0358
RRIRTRPPRLPRPRPRPMDMPRP	0.0382
RRIRTRPPRLPRPRPRPMDYPRP	-0.00965
RRIRTRPPRLPRPRPRPMEDPRP	-0.00968
RRIRTRPPRLPRPRPRPMEKPRP	-0.00136
RRIRTRPPRLPRPRPRPMHYPRP	-1.41
RRIRTRPPRLPRPRPRPMKDPRP	-0.303
RRIRTRPPRLPRPRPRPMKKPRP	-0.115
RRIRTRPPRLPRPRPRPMLMPRP	-0.248
RRIRTRPPRLPRPRPRPMMGPRP	-0.1
RRIRTRPPRLPRPRPRPMMHPRP	-0.302
RRIRTRPPRLPRPRPRPMMYPRP	-0.00147
RRIRTRPPRLPRPRPRPMNPPRP	-0.141
RRIRTRPPRLPRPRPRPMPPPRP	0.0692
RRIRTRPPRLPRPRPRPMQQPRP	0.065
RRIRTRPPRLPRPRPRPMQYPRP	-0.0442
RRIRTRPPRLPRPRPRPMRRPRP	0.00555
RRIRTRPPRLPRPRPRPMRTPRP	0.276
RRIRTRPPRLPRPRPRPMRWPRP	0.313
RRIRTRPPRLPRPRPRPMSGPRP	-0.137
RRIRTRPPRLPRPRPRPMSSPRP	-0.00458
RRIRTRPPRLPRPRPRPMTMPRP	-0.223
RRIRTRPPRLPRPRPRPMVWPRP	0.57
RRIRTRPPRLPRPRPRPMYYPRP	0.0219
RRIRTRPPRLPRPRPRPNDQPRP	-0.212

Sequence	shrunken log2 fold change
RRIRTRPPRLPRPRPRPNDVPRP	-0.0532
RRIRTRPPRLPRPRPRPNDYPRP	-0.523
RRIRTRPPRLPRPRPRPNERPRP	-0.0561
RRIRTRPPRLPRPRPRPNFVPRP	0.0615
RRIRTRPPRLPRPRPRPNGMPRP	-0.245
RRIRTRPPRLPRPRPRPNGVPRP	-0.0427
RRIRTRPPRLPRPRPRPNHPPRP	0.0542
RRIRTRPPRLPRPRPRPNIRPRP	-0.0979
RRIRTRPPRLPRPRPRPNKFPRP	-0.37
RRIRTRPPRLPRPRPRPNKGPRP	-0.28
RRIRTRPPRLPRPRPRPNKKPRP	-0.26
RRIRTRPPRLPRPRPRPNLAPRP	0.0471
RRIRTRPPRLPRPRPRPNPEPRP	-0.101
RRIRTRPPRLPRPRPRPNPIPRP	-0.157
RRIRTRPPRLPRPRPRPNPMPRP	-0.383
RRIRTRPPRLPRPRPRPNQGPRP	-0.493
RRIRTRPPRLPRPRPRPNQNPRP	-0.168
RRIRTRPPRLPRPRPRPNQPPRP	0.0619
RRIRTRPPRLPRPRPRPNRKPRP	-0.104
RRIRTRPPRLPRPRPRPNSEPRP	0.0485
RRIRTRPPRLPRPRPRPNSGPRP	0.00712
RRIRTRPPRLPRPRPRPNSTPRP	-0.363
RRIRTRPPRLPRPRPRPNTEPRP	-0.011
RRIRTRPPRLPRPRPRPNTQPRP	-0.0477
RRIRTRPPRLPRPRPRPNVCPRP	0.128

Sequence	shrunken log2 fold change
RRIRTRPPRLPRPRPRPNVHPRP	-0.637
RRIRTRPPRLPRPRPRPPAIPRP	0.0134
RRIRTRPPRLPRPRPRPPCWPRP	0.171
RRIRTRPPRLPRPRPRPPETPRP	0.161
RRIRTRPPRLPRPRPRPPFYPRP	-0.0308
RRIRTRPPRLPRPRPRPPGSPRP	0.00863
RRIRTRPPRLPRPRPRPPIFPRP	-0.245
RRIRTRPPRLPRPRPRPPKEPRP	-0.000639
RRIRTRPPRLPRPRPRPPKSPRP	0.556
RRIRTRPPRLPRPRPRPPKYPRP	-0.103
RRIRTRPPRLPRPRPRPPLMPRP	-0.0314
RRIRTRPPRLPRPRPRPPLRPRP	0.314
RRIRTRPPRLPRPRPRPPMRPRP	0.957
RRIRTRPPRLPRPRPRPPPQPRP	0.848
RRIRTRPPRLPRPRPRPPSPPRP	0.236
RRIRTRPPRLPRPRPRPPSVPRP	0.352
RRIRTRPPRLPRPRPRPPTCPRP	0.174
RRIRTRPPRLPRPRPRPPVCPRP	0.713
RRIRTRPPRLPRPRPRPPVEPRP	0.0458
RRIRTRPPRLPRPRPRPPVGPRP	1.18
RRIRTRPPRLPRPRPRPPVKPRP	0.385
RRIRTRPPRLPRPRPRPPWNPRP	-0.288
RRIRTRPPRLPRPRPRPPYDPRP	-0.398
RRIRTRPPRLPRPRPRPPYGPRP	-0.195
RRIRTRPPRLPRPRPRPQADPRP	-0.297

Sequence	shrunken log2 fold change
RRIRTRPPRLPRPRPRPQALPRP	0.231
RRIRTRPPRLPRPRPRPQAVPRP	-0.111
RRIRTRPPRLPRPRPRPQCQPRP	-0.0883
RRIRTRPPRLPRPRPRPQCVPRP	-0.12
RRIRTRPPRLPRPRPRPQEIPRP	-0.187
RRIRTRPPRLPRPRPRPQHSPRP	-0.183
RRIRTRPPRLPRPRPRPQIDPRP	-0.269
RRIRTRPPRLPRPRPRPQKTPRP	-0.0581
RRIRTRPPRLPRPRPRPQMEPRP	0.00225
RRIRTRPPRLPRPRPRPQNCPRP	-0.373
RRIRTRPPRLPRPRPRPQNHPRP	-1.49
RRIRTRPPRLPRPRPRPQPRPRP	0.439
RRIRTRPPRLPRPRPRPQTIPRP	-0.717
RRIRTRPPRLPRPRPRPQTTPRP	0.0779
RRIRTRPPRLPRPRPRPQTWPRP	-0.18
RRIRTRPPRLPRPRPRPQVNPRP	-0.587
RRIRTRPPRLPRPRPRPQWCPRP	-0.0353
RRIRTRPPRLPRPRPRPRAAPRP	0.385
RRIRTRPPRLPRPRPRPRCCPRP	0.0734
RRIRTRPPRLPRPRPRPREAPRP	0.388
RRIRTRPPRLPRPRPRPRHYPRP	-0.162
RRIRTRPPRLPRPRPRPRIDPRP	-0.0699
RRIRTRPPRLPRPRPRPRISPRP	-0.106
RRIRTRPPRLPRPRPRPRLFPRP	0.207
RRIRTRPPRLPRPRPRPRLGPRP	0.169

Sequence	shrunken log2 fold change
RRIRTRPPRLPRPRPRPRLPPRP	0.119
RRIRTRPPRLPRPRPRPRNKPRP	-0.342
RRIRTRPPRLPRPRPRPRRGPRP	0.604
RRIRTRPPRLPRPRPRPRTFPRP	0.0284
RRIRTRPPRLPRPRPRPRVDPRP	0.181
RRIRTRPPRLPRPRPRPRVIPRP	-0.12
RRIRTRPPRLPRPRPRPRVNPRP	0.0441
RRIRTRPPRLPRPRPRPRVPPRP	0.105
RRIRTRPPRLPRPRPRPRWCPRP	0.109
RRIRTRPPRLPRPRPRPRYCPRP	-0.116
RRIRTRPPRLPRPRPRPRYDPRP	-0.123
RRIRTRPPRLPRPRPRPRYLPRP	-0.131
RRIRTRPPRLPRPRPRPSAIPRP	-0.979
RRIRTRPPRLPRPRPRPSDWPRP	0.0388
RRIRTRPPRLPRPRPRPSFPPRP	-0.261
RRIRTRPPRLPRPRPRPSGPPRP	-0.339
RRIRTRPPRLPRPRPRPSHCPRP	-0.0229
RRIRTRPPRLPRPRPRPSIEPRP	-0.155
RRIRTRPPRLPRPRPRPSIHPRP	-0.561
RRIRTRPPRLPRPRPRPSITPRP	-0.484
RRIRTRPPRLPRPRPRPSKPPRP	-0.487
RRIRTRPPRLPRPRPRPSNEPRP	-0.34
RRIRTRPPRLPRPRPRPSNRPRP	-0.0802
RRIRTRPPRLPRPRPRPSPHPRP	-0.159
RRIRTRPPRLPRPRPRPSRTPRP	0.305
